Experimental data reported in patent US20220119522A1.

Target: mouse TREM2 truncated stalk peptide (aa 149-163) (mouse) (UniProt Q99NH8)
Experiment: ELISA on biotinylated peptide captured by streptavidin; A450 normalised to isotype control

Row | fold over background (A450) | Binder
1 | 1.7 fold | CL0020109 (antibody, V domains shown) VH: EVQLQQSGPVLVKPGASLKMSCRASGYTFTDYYVHWVKQSHGKSLEWIGLINPYTGTTSYNQRFKGKATLTVDKSSSTAYMEVNSLTSEDSAVYYCARSRVYYGSSLFAFWGQGTLVTVSA VL: DIVMTQSPSSLSVSAGEKVTMSCKSSQSLLNSGNQKNYLAWYQQKPGQPPKLLIYGASTRESGVPDRFTGSGSGTDFTLTISSVQAEDLAVYYCQNDHSYPYTFGGGTKLEIK
2 | 1.1 fold | CL0020205 (antibody, V domains shown) VH: EVQLQQSGPVLVKPGASVKMSCKASGYTFTDYYVHWVKQSHGKSLEWIGLINPYTGTTSYNQRFRVKATLTVDKSSSTAYMEVNSLTSEDSAVYYCARSRVYYGSSLFAFWGQGTLVTVSA VL: DIVMTQSPSSLSVSAGEKVTMSCKSSQSLLNSGNQKNYLAWYQQKPGQPPKLLIYGASTRESGVPDRFTGSGSGTDFTLTISSVQAEDLAVYYCQNDHSYPYTFGGGTKLEIK
3 | 1.2 fold | CL0020173 (antibody, V domains shown) VH: EVKLLESGGGLVQPGSSMRLSCAASGFTFTDFYMNWIRQPAGRAPEWLGFFRNIVDGYTTEYNPSVKGRFTISRDNTQNMLYLQMNTLRAEDTATYYCARSGYSSYIYGGTFAYWGQGTLVTVSS VL: ETVMTQSPTSMSTSIGERVTLNCKASQSVGIHVDWYQQTPGQSPKLLIYGASNRHTGVPDRFTGSGFGRDFTLTISNVEAEDLAVYYCLQYGSIPWTFGGGTKLELK
4 | 1.2 fold | CL0020215 (antibody, V domains shown) VH: QVQLQQPGAELVKPGASVKMSCKASGYTFTNYWIMWVKQRPGQGLEWIGDIYPSSGSTNYNEKFKNRATLTVDTSSNTAYMQLSSLTSEDSAVYFCSREGYGISAWGQGTTLTVSS VL: QIVLTQSPAIMSASPGEKVTITCSASSSVSYMHWFQQKPGTSPKLWIYSTSNLASGVPARFSGSGSGTSCSLTISRMEAEDAATYYCQQRSSFPLTFGAGTKLELK
5 | 1.5 fold | CL0020111 (antibody, V domains shown) VH: QVQLQQPGADLVKPGASVKMSCKASGYTFTNYWITWVQQRPGQGLEWIGDIYPGSGNTNYNEKFRSKATLTVDTSSNTAYMQLSSLTSEDSAVYYCSREGYGISAWGQGTTLTVSS VL: QIVLTQSPAFMSASPGEKVTITCRASSSVSYMHWFQQKPGTSPKLWIFSTSNLASGVPARFSGSGSGTSHSLTISRMEAEDAATYYCQQRSGYPLTFGAGTKLELK
6 | 1.1 fold | CL0020313 (antibody, V domains shown) VH: QVQLKQSGPGLLQPSQSLSITCTVSGFSLTSYGVHWVRQSPGKGLEWLGVIWSGGITLYNAAFMSRLSITKDNSKSQVFFKMNSLQADDTAIYYCAKVGYGSSSDYWGQGTTLTVSS VL: DVLMTQSPLSLPVSLGDQASFSCRSSQSIVHSNGNTYLEWYLQKPGQSPKLLIYKVSNRFSGVPDRFSGSGSGTDFTLKISRVEAEDLGVYYCFQGSHVPFTFGSGTKLEIK
7 | 1.2 fold | CL0020195 (antibody, V domains shown) VH: EVQLVESGGGLVQPGRSMMLSCSASGFTFSNYHMAWVRQAPTTGLEWVASITTGSGNTYYRHSVKGRFTISRDNAKSTLYLQMDSLRSEDTASYYCARRWYGGYEGYYFDYWGQGVMVTVSS VL: DIQMTQSPSLLSASVGDRVTLSCKAGQNVNNYLAWYQQKLGEAPKLLIYNANILQTGFPSRFSGTGSGTDFTLTISSLQPEDVATYFCQQYNSWTTFGGGTKLELK
8 | 0.9 fold | CL0020123 (antibody, V domains shown) VH: EVQLQQSGAELVRSGASVKLSCTASGFSIEDFYIHWVKQRPEQGLEWIGWIDPENGDSKYAPKFQGKATMTADTSSNTAYLHLSSLTSEDTAVYYCHADHGNYGSTMDYWGQGTSVTVSS VL: DIQMNQSPSSLSASLGDTVTITCHASQHINVWLSWYQQKPGDHPKLLIYKASNLHTGVPSRFSGSGSGTGFTLTISSLQPEDIATYYCQQGQTYPRTFGGGTKLEIK
9 | 1.2 fold | CL0020120 (antibody, V domains shown) VH: EVQLQQSGPELVRTGASVKISCRASSYSFTDNYIHWVKQTHGRSLEWIGYISGYTGATSYNQKFKGKATFTVDTSSSTAYMQFNSLTSEDSAVYYCARSTMIAPYGMDYWGQGTSVTVSS VL: DIVMTQSHKFMSTSVGDRVNITCKASQDVVTAVAWYQQKPGQSPKLLIYWASTRHTGVPDRFTGSGSGTDFTLTISNVQSEDLADYFCQQYSRYPLTFGAGTKLELK
10 | 1.6 fold | CL0020206 (antibody, V domains shown) VH: EVQLQQSGPVLVKPGASVKMSCKASGYTFTDYYMNWVKQSHGKSLEWIGIINPYSGGISYNQKFKGKAILTVDKSSSTAYMELNSLTSEASAVYYCTRRNWDGRYAMDYWGQGTSVTVSS VL: DIVMTQSHKFMSTSVGDRVSITYKASQDVGSAVAWYQQKPGQSPKLLIYWTSTRHTGVPDRFTGSGSGTDFTLTISNVQSEDLADYFCQQYSSYPFTFGGGTKLEIK
11 | 1.2 fold | CL0020127 (antibody, V domains shown) VH: EVQLQQSGPVLVKPGASVKMSCKASGYKFTDYYMNWVKQSHGKSLEWIGTINPYSGGISYNQKFKGKATLTVDKSSSTAYMELNSLTSEASAVYYCTRRNWDGRYAMDYWGQGTSVTVSS VL: DIVMTQSHKFMSTSVGDRVSITCKASQDVSTAVAWYQQKPGQSPKLLIYWASTRHTGVPDRFTGSGSGTDFTLTISNVQSEDLAEYFCQQYSSYPFTFGGGTKLEIK
12 | 1.8 fold | CL0020201 (antibody, V domains shown) VH: EVQLQQSGPVLVKPGASVRMSCKPSGYTFTDYYMNWVKQSHGKSLEWIGSINPYTGGSSYNQNFRGKATLTVDKSSSTAYMELNSLTSEDSAVYYCARGSYYSNLGFAYWGQGTLVTVSA VL: DVQLTQSPSFLTASPGETITINCRASKSISKYLAWYQEKPGKTNKLLISSGSTLQSGIPSRFSGSGSGTDFTLTISSLEPEDFAMYYCQQYSEYPFTFGSGTKLEIK
13 | 1.3 fold | CL0020214 (antibody, V domains shown) VH: QVRLQQSGAELVRPGSSVKLSCKASGYAFSSYWMNWVKQRPGQGLEWIGQIYPGDGDTNYNGNFKGKATLTADNSSSTAYMQLSSLTSEDSAVYFCARRRNGDFGDYAMDYWGQGTSVTVSS VL: QIVLTQSPAIMSASPGEKVTISCSASSSVSYMCWYQQKPGSSPKPWIYRTSTLASGVPARFSGSGSGTSYSLTISSMEAADAATYYCQHYHSYPFTFGAGTKLELK
14 | 1.3 fold | CL0020186 (antibody, V domains shown) VH: EVQLVESGGGLVQPGRSLKLSCPASGFTFSYYGMAWVRQAPTKGLEWVASISTGGGNTYYRDSVKGRFTISRDNAKNTLYLQMDSLRSEDTATYYCARGDIGTAYWFTYWGQGTLVTVSS VL: NIQLTQSPSLLSASVGDRVTLSCKGSQNINNYLAWYQQKLGEAPKLLIYKTNSLLTGIPSRFSGSGSGTDYTLTISSLHSEDLATYYCYQYNNGWTFGGGTKLELK
15 | 1.1 fold | CL0020161 (antibody, V domains shown) VH: EVQLVESGGGLVQPGRSMKLSCAALGFTFSNYYMAWVRQAPRKGLEWVASISTGGDNTYYRDSVKGRFTISRDNAKSTLYMQMDSLRSEDTATYYCVRSFIVGTTGYYFDYWGQGVMVTVSS VL: DIVLTQSPALAVSLGQRATISCKTNQNVDYYGNNYMHWYQQTPGQQPKLLIYFASNLASGIPARFSGRGSGTDFTLTIDPVEADDTATYYCQQSRNLPTFGGGTKLELK
